Consider 20 sequences from a protein production outcome set (Wang et al. 2014).
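Note: failed if final PepcDB status was selected cloned or expressed and not failed if soluble or beyond.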

This data set in a line: label from the status in PepcDB records.
For the sequence “MCTIFKVNGKIHIKELISSIVIAEGVGALSGFLSMSNVKNYSNLKKPFFSPPGFIFPIVWVILYFLMAVAAYRIWVIGKEESKDVKKALVLYAVQLLFNFLWSIIFFKFNCYGAAFIELLILLFFILCATFQFHKHDKVAAFLMIPYILWVSFAGILNFAIWFLNRNSST”, the protein production result is recorded as “failed”.

For “YVFTVELERGPSGLGMGLIDGMHTHLGAPGLYIQTLLPGSPAAADGRLSLGDRILEVNGSSLLGLGYLRAVDLIRHGGKKMRFLVAKSDVETAKKIH”, the protein production entry is “not failed”. On to “MNCKFEGSKVFFTSDTHFYHGNIIRFCNRPFKDVGMMNETIISNWNNTVGLDDIVFHLGDFCLGGSAEWTKILDRLNGKIYLILGNHDLKNLRQGYVDRFEHLAMQMHIEVNKQKIYLNHYPFLCFDGGYKDVWQLFGHVHTRNNNTGIDATRLQHLYPTQYDVGVDNNNFMPVSFAQVKTIIEKQIKQSKMEELEHHHHHH”, for which the protein production result is given as “not failed”. As to “MTSYTAAGLGELVQRDGALVNGRIYTDPEIFGLEMERIFSKVWVYVGHESQVANPGDYMTGYLAQQPIILTRDRAGQIHVLFNRCTHRGAKIVNRERGNERLLTCMYHGWAFGHDGELRGIPLKKDFPAEAVEPCKASLARPPRVDAYRGFIFASLNPDVEPLRDYLGAAASGIDEIVDRAPAGTIRLSAGCHRYIYEGNWKLQTDNLGDMYHPVACHSSTVDEDGKQFKRRPGDEGGRAAFLGADGEPIVIQTGVRGFLRGHSSEASLFGANDIVKEETRQRGGIIDEYRSLLIEQHGVEKTDEILKNRRHSMTLFPNLDVLMVQTSVRVVIPLAYNRTEVRIYPVHLDGAPDELNRQIIKFLNITHSAASFIQTDDLEAFKRQQEGLAARSPQWLIVARGQGSEIDEGNGAYFGPRASEVGQRMRHQYWRELMMAE”, the protein production entry is “failed”. Take “MSEAIRRAEAIDFGPDAQDLLWLSQDPVAVFDAEDRLRAANPAYCATFGCDPAEAPSWRQIMRRNHAMRQGALIVTEDFEGWLAAAAASRGRVPFRAYEAALHDGRWIWITETTAPDGRMLVHATDVTRLRSESLALRSERDAAQRASWTDPLTGVPNRRFVMDHLERWLDQQPRHGTFGTHALAVMDLDRFKQVNDLYGHTAGDAVLVSFCRITTDSIRSVDLFGRFGGEEFVLFMPNCPLETAQARLERLQEALAVAVVSPDLPALRCTFSAGLVAMRRDKDVHHAIRRADRLLYRAKADGRACVRAEI”: the protein production result was “failed”. The same measure for “MRQSTLHTRLSTGPGGSMRSSIEIFNIRTRKMRVVWQTPELFEAPNWSPDGKYLLLNSEGLLYRLSLAGDPSPEKVDTGFATICNNDHGISPDGALYAISDKVEFGKSAIYLLPSTGGTPRLMTKNLPSYWHGWSPDGKSFTYCGIRDQVFDIYSMDIDSGVETRLTHGEGRNDGPDYSPDGRWIYFNSSRTGQMQIWRVRVDGSSVERITDSAYGDWFPHPSPSGDKVVFVSYDADVFDHPRDLDVRVQLMDMDGGNVETLFDLFGGQGTMNSPNWSPDGDEFAYVRYFPVE”: “not failed”. The same measure for “MAAFVRDYLEASVENETDGGRMRWYPWHSAEYRFTHIMNVVDIAERIAEATSANVDVVRVAALFHDIAKLEAEQDAHAEEGARIARKYLETHGQFPPSFVDQVAEAVSRHSYQGDLMDLPLEARCLVEADLLDKAGANGAALMLLRMGYEARTHVDAAEMIQRVLDRGEDAAERVESDAASSIAHRRLKRVRWLHDWLTSEVPAMNDTGY”: “failed”. Regarding “MDLLSLLDINNTLVNIPIGGGYAMSWVEGFGTIFGLLCIWFASQEKTINYVFGLLNVTLFAVIFFQIQLYGLLLLQLFFFCANIYGWYAWTKPNSSGETLEVRWLSQSKLLAISGGSIAAIALLTIYIDPFFFSLATIAVDGMNLFGAELAEPVLAPDAFPFWDSTMTVLSIVAQILMTRKYVENWMLWIVINIISIGIYATQGVFAMSVQYSILMFIAANGAREWARTAKENINNKQVEKAIA”, the protein production result is listed as “failed”. Turning to “MLSKNNFNEKLMQMNNQKAHFSIRKLTIGAASVLIGITFMGINGQTVNADEMTGNTQPEAMQVSTDKSTDATTTQQNDSDSSAQKNAAQTVEVPQNSKQDNTGETSQSTTDKKDTQVQKTESSETKADTAQSQVPPAANQTQKSADQNVENTQSPVASNTTQPKTQNDSKYNVADWGGSLNDETHEYTLNKYNGSDKENIYIPNTEDFIKAGKITDIDKVFITKDLIQNITKNGATSIVIDDQGSEDKNKVYAKGDWSNAFAGSTKLKSVDLSHLDTSQVTSMAGAFNGDTGLNDANLSGWNIQNMTNLSSLFYGANNLYNVDMSGWNFINNPNTNSMFSYADYNLKSVNLKNAKNVTDDILRIYARAIKNSNATTADLSDINLSPNVTSLHGLFSNMPDLKNVNLSGLDISHITDMGGMFSGDSNLESLDLSGLDLSKVTNTNNMFDWVGGKIKSVNITNTKSIPRSILDIYLKALSNTGTTTVDLSGINLSPNVTSLHGLFANMPNLGSANLSGLDISHITDMGGMFFNDTSLKSVNLSGLNLEKVKDLSTMFYGANNLENVDFSNTKFAPDANTNVMFAFADTKLQSVNINGTKNITREVLDAVIRAAKNSNATTLDLSGVSFSPSITSFNNLFSNMPNIESIDLTGWDTSHITDMSYMFFNDPKLKIIKGLEDFNTSNVTNMAYMFAAFNNPTTDNYDPKGLESLGHLTKLDLSNWDTSNVTNMLYMFAGQTNLTSLGDLSKWNTSKVTNMAYMFYDLKNIDDGKLDLTGWDTSNVTDMSYMFFNMFLQKDLSFVNDWNTGKVTDMSYMFANDKNLEKLDLSKWDVSSVGLKHTEQNYSLAMMFAGDTSLTTVGDISHWNTKNVHDTRQMFYNTPKLTNIDLSGWNTGKLQIAEGMFNSSGAKQINLDNWDLSNIKRITPAGYVEGKAGVGVLRGVENMFKNLTNPAVISMNKVILPDARNAFEINDFEGNKAIVVIANGQNGEALQDLLKINNQTWTDKSGNNVTGRQNSDYVTYVRADDNSNQIGQRGLNFIFTNLDDLHQYFNQVTNADNVKNDIGELSHDWDAQQDTDNNIVKITLRLSPASSYDPYSENIHAEKDGNILADLMTSKYQLHIVAPTNTTETKKPTRTIIIENPDGTTSTKEQTVEFKREVTKHVDGTEEATSWTPTSGEWTKFDVPQIAGYDSYVDGTQSKSVASEPVNKDTENVTVVITYKSNAVNPEPIIPDPVKPEVDPDKKDPQEPKTDPVTPTPDEPENPKPEKKPSNPDKRKDDNSKVVKPHGENKAAKKNHSSVEHKKTGTHTIKLSHRVAPKGTQATNGSKKSTSTVNKAADNNKNTLPQTGEKKSNAGLIGLALIALASLGLIDRKRRD”, the protein production result was “failed”. As to “MYQVIIFALLFAGISSGFITFRIMGMRMAPHFGVLILALIATAANIMSGNVTLNYVAVALQVLTGISAYTQFLPVLRDSFQTAPLYACHLSTVTVAAVLAAASVPL”, the protein production result is “failed”.

As for “MAGNSLVLPIVLWGRKAPTHCISSILLTDDGGTIVTGCHDGQICLWDVSVELEVNPRALLFGHTASITCLSKACASGDKRYTVSASANGEMCLWDVNDGRCIEFTKLACTHTGIQFYQFSVGNQQEGRLLCHGHYPEILVVDATSLEVLYSLVSKISPDWISSMSIIRSQRTQEDTVVALSVTGILKVWIVTSEMSGMQDTEPIFEEESKPIYCQNCQSISFCAFTQRSLLVVCSKYWRVFDAGDYSLLCSGPSENGQTWTGGDFVSADKVIIWTENGQSYIYKLPASCLPASDSFRSDVGKAVENLIPPVQHSLLDQKDKELVICPPVTRFFYGCKEYLHKLLIQGDSSGRLNIWNIADIAEKQEADEGLKMTTCISLQEAFDKLKPCPAGIIDQLSVIPNSNEPLKVTASVYIPAHGRLVCGREDGSIIIVPATQTAIVQLLQGEHMLRRGWPPHRTLRGHRNKVTCLLYPHQVSARYDQRYLISGGVDFSVIIWDIFSGEMKHIFCVHGGEITQLLVPPENCSVSRFI”, the protein production entry is given as “failed”. The same measure for “DDDEPGGKGAMYEVTIEQSGDFRSFIKSVVVVANGTQLKDGATGESLASPVILSDEELAVEKVTLSTTGKAIEFAVSGGVVDGEDGVVNEPMQWVVTVYKNGKEIEKKSLVFRDGKEISTDDLNLYYN”: “not failed”; for “MAEPKFTSFTTADFINDVDMELFIDAVEKTAPVWVKEMKSRGLLKFSMNRVWNKGEVFRVVMTYEYKDRASFEANIAYLEDTFGKNPVFLQLVTTAKFTTSRCLVVMEV”: “not failed”; for “MIPGEILAVLVVVIPGVVNITYRLGIKKATIVGASADLVVAGLMYFLRPQTGFFYIQDSTMLFIIMVLSVYLLSAIYSTRYLKGIEVMGIREPTYYLLLNLFTASMLFSLEVNNYGLMWVGIEATTISSALLLITEKSETSLEATWRYIIIVSAGVTFAFISIILIYYTLGTLSVSTAIGSHVHSRIMVLAVSLALIGFGTKVGVFPVHTWLPDAHSEAPSPVSAMFSGVLLPTALYVLYRVYEIEPVRGLYVWFAVVSIVAASIFMGYQARYKRMFAYSTMENMNLALLGIAVGGSLGFTGALLLLLSHSFGKAGAFYSSGNILRFTGKKEIAEINGMHTSMPYTSTSLLMSSLAVTGAPPFGTFFGEFLILSGVLSLHMYVQFIIVIVFLAAAFISMNYNVTGMIFNGNCPNIEKDRLMPALSIFSSVIPLFIGIFFLVVYNEIL”: “failed”. The same measure for “MYINKFVPVYTLLILIYSFNASAEWTGDNTNAYYSDEVISELHVGQIDTSPYFCIKTVKANGSGTPVVACAVSKQSIWAPSFKELLDQARYFYSTGQSVRIHVQKNIWTYPLFVNTFSANALVGLSSCSATQCFGPK”: “failed”; for “MMLGPEGGEGYVVKLRGLPWSCSIEDVQNFLSDCTIHDGVAGVHFIYTREGRQSGEAFVELESEDDVKLALKKDRESMGHRYIEVFKSHRTEMDWVLKHSGPNSA”: “not failed”; for “MAKVTISSVIDAPVEKVWARIRDFNGLPCWHPRMVESHIEDGKNASTIGCVRNFELITGARLREKLLDFSDENFLVSYSILETPQPLTNHKATLQLRRVTDGDRTYAEWTASFDAAPEEADKIAAGMGANVFQGGFNALKSHFSGQD”: “failed”. The same measure for “MLINKTKRAEQNLNNLPFLALQAEQIEFLGSSAEFKTQIIELIRNAKKRIYVTALYWQKDEAGQEILDEIYRVKQENPHLDVKVLIDWHRAQRNLLGAEKSATNADWYCEQRQTYQLPDDPNMFFGVPINTREVFGVLHVKGFVFDDTVLYSGASINNVYLHQFEKYRYDRYQKITHAELADSMVNFINDYLLDFSAVYPLDVTNRPRTKEIRGNIRAYRKDLAQNGEYSLKSAVKLPNVLSVSPLFGLGASGNELNQVIEDLFLQVQKKLVICTPYFNFPRTLQHKIATLLENGKRVEIIVGDKVANDFYIPPEQPFKMAGALPYLYESNLRRFCEKFETQIESGQLVVRLWRDGDNTYHLKGVWVDDRYILLTGNNLNPRAWRLDAENGLLIYDPQQQLLAQVEKEQNQIRQHTKVLKHYTELEELNQYPEPVQKLLKKFARIKADKLVKMILLEHHHHHH”: “not failed”; for “SRVLSRMSGTIRHFQAITLALSRERDLERMLDGVLSHLVEAAGGDAGGVYLYDAEQALLRLAASCRGEHYPSELAVDESARQHLAATVTQALSLHERSLAVVLNDRSQALLGILVLQMGEEQAQERVGEAFRRFVEELSGVAAVAIETRQLVEAQQRLLDA”: “failed”; for “MKLFFTDGQFAVAGYSRPDVPFLCDAEMELVDAPNRYLRYIATVKGRTRAANTWRTYGAALYEFFAFLEANGLAWDRVDQSQIAAWRDTMLERGCARSTVNQRLRTVDAFYNWAKSNGMTHSIPFDRTDVWVAKPRGFLAHVDASGDRFEANSLTVQTHKVTPQFLHLDRAIRFLDALTPYRMRLMGYLALLTGMRREEVVSMDCRVLPNPAGRDSNKQIPMHLDPSITPTKGEKDRTVMLPYDLAVALYQYFTFERSRLLAKHRAKFGIETTLLFLSQTGDPLSVNGLNNAFRRVSQKTGIWCTPHMLRHTFGTYELMRMSRQKTQTQALLWVRDRMGHNSITTTEIYVHAADLVEHDDVDGYHLDICRALAHGNPTSKT”: “failed”.
